Drawing on article PMC10786891, “Massively parallel profiling of RNA-targeting CRISPR-Cas13d”, this text covers Kd for 31 molecules.

First the molecules themselves.
T1: EsCas13d, nuclease-dead (Eubacterium siraeum, UniProt B0MS50, R295A;H300A;R849A;H854A)
T1 sequence: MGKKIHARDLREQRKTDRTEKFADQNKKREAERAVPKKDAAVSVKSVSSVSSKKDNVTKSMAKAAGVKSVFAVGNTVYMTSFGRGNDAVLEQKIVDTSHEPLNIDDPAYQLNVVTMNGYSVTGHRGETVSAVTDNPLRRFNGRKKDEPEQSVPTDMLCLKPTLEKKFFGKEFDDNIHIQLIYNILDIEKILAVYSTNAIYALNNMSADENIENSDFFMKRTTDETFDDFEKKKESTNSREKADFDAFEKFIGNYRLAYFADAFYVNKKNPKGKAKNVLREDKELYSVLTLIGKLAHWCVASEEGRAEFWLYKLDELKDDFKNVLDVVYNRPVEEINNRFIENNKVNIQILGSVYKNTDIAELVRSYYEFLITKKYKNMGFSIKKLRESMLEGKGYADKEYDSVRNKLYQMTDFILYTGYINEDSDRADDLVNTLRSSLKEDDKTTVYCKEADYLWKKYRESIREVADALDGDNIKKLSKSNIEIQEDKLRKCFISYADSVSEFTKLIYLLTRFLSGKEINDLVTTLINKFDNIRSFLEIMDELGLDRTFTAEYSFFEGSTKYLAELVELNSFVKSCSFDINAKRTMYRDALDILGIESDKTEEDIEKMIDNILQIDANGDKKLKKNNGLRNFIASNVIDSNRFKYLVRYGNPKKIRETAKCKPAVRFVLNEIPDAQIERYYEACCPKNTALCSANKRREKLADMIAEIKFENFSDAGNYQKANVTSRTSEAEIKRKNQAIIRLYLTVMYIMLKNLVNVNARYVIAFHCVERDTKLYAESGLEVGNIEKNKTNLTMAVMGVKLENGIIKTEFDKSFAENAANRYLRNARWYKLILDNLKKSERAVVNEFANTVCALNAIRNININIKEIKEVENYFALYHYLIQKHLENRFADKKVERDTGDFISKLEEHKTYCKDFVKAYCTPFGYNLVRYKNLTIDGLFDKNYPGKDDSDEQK

B1: target 1 MT 5'PFS GUG 3'PFS GCU (mixed)
RNA 1: CACCCGUGCAAAAAUGCAGGGGUCUAAAACUGAGCGGAUAACCUCUCUAUGG
RNA 2: GGGAAUGGAUCCACAUCUACGAAUUCGUGCCAUAGAGAGGUUAUCCGCUCAGCUAGAUCGGAAGAGCACACGU
B2: target 1 MT 5'PFS GGC 3'PFS UUU (mixed)
RNA 1: B1 RNA 1
RNA 2: B1 RNA 2 with U28G, G29C, G52U, C53U
B3: target 1 MT 5'PFS CAC 3'PFS CUA (mixed)
RNA 1: B1 RNA 1
RNA 2: B1 RNA 2 with G27C, U28A, G29C, G52C, C53U, U54A
B4: target 1 MT 5'PFS UCC 3'PFS CUC (mixed)
RNA 1: B1 RNA 1
RNA 2: B1 RNA 2 with G27U, U28C, G29C, G52C, C53U, U54C
B5: target 1 MT 5'PFS UCC 3'PFS CUG (mixed)
RNA 1: B1 RNA 1
RNA 2: B1 RNA 2 with G27U, U28C, G29C, G52C, C53U, U54G
B6: target 1 MT 5'PFS UAA 3'PFS CCG (mixed)
RNA 1: B1 RNA 1
RNA 2: B1 RNA 2 with G27U, U28A, G29A, G52C, U54G
B7: target 1 insU 3' of 22,insA 3' of 5 (mixed)
RNA 1: B1 RNA 1
RNA 2: GGGAAUGGAUCCACAUCUACGAAUUCGUACUCAUAGAGAGGUUAUCCGACUCACCGAGAUCGGAAGAGCACACGU
B8: target 1 MT 5'PFS GAA 3'PFS ACC (mixed)
RNA 1: B1 RNA 1
RNA 2: B1 RNA 2 with U28A, G29A, G52A, U54C
B9: target 1 MT 5'PFS CAC 3'PFS CUG (mixed)
RNA 1: B1 RNA 1
RNA 2: B1 RNA 2 with G27C, U28A, G29C, G52C, C53U, U54G
B10: target 1 MT 5'PFS GCG 3'PFS UGU (mixed)
RNA 1: B1 RNA 1
RNA 2: B1 RNA 2 with U28C, G52U, C53G
B11: target 1 MT 5'PFS GGA 3'PFS CGC (mixed)
RNA 1: B1 RNA 1
RNA 2: B1 RNA 2 with U28G, G29A, G52C, C53G, U54C
B12: target 1 insC 3' of 17,insU 3' of 4 (mixed)
RNA 1: B1 RNA 1
RNA 2: B7 RNA 2 with U31C, C32A, A33U, U34A, A35G, G36C, A49C, C50U
B13: target 1 MT 5'PFS GAA 3'PFS ACG (mixed)
RNA 1: B1 RNA 1
RNA 2: B1 RNA 2 with U28A, G29A, G52A, U54G
B14: target 1 MT 5'PFS GUC 3'PFS ACC (mixed)
RNA 1: B1 RNA 1
RNA 2: B1 RNA 2 with G29C, G52A, U54C
B15: target 1 MT 5'PFS GUC 3'PFS ACG (mixed)
RNA 1: B1 RNA 1
RNA 2: B1 RNA 2 with G29C, G52A, U54G
B16: target 1 MT 5'PFS GAA 3'PFS ACU (mixed)
RNA 1: B1 RNA 1
RNA 2: B1 RNA 2 with U28A, G29A, G52A
B17: target 1 MT 5'PFS GGG 3'PFS AUC (mixed)
RNA 1: B1 RNA 1
RNA 2: B1 RNA 2 with U28G, G52A, C53U, U54C
B18: target 1 MT 5'PFS GGG 3'PFS AUA (mixed)
RNA 1: B1 RNA 1
RNA 2: B1 RNA 2 with U28G, G52A, C53U, U54A
B19: target 1 MT 5'PFS UUA 3'PFS UGA (mixed)
RNA 1: B1 RNA 1
RNA 2: B1 RNA 2 with G27U, G29A, G52U, C53G, U54A
B20: target 1 MT 5'PFS AAU 3'PFS CAU (mixed)
RNA 1: B1 RNA 1
RNA 2: B1 RNA 2 with G27A, U28A, G29U, G52C, C53A
B21: target 1 MT 5'PFS GGC 3'PFS UUG (mixed)
RNA 1: B1 RNA 1
RNA 2: B1 RNA 2 with U28G, G29C, G52U, C53U, U54G
B22: target 1 MT 5'PFS CUU 3'PFS CAG (mixed)
RNA 1: B1 RNA 1
RNA 2: B1 RNA 2 with G27C, G29U, G52C, C53A, U54G
B23: target 1 MT 5'PFS GGA 3'PFS CGA (mixed)
RNA 1: B1 RNA 1
RNA 2: B1 RNA 2 with U28G, G29A, G52C, C53G, U54A
B24: target 1 MT 5'PFS UAU 3'PFS UGC (mixed)
RNA 1: B1 RNA 1
RNA 2: B1 RNA 2 with G27U, U28A, G29U, G52U, C53G, U54C
B25: target 1 insA 3' of 8,insC 3' of 1 (mixed)
RNA 1: B1 RNA 1
RNA 2: GGGAAUGGAUCCACAUCUACGAAUUCGUACCAUAGAGAGGUUAUACCGCUCACCCGAGAUCGGAAGAGCACACGU
B26: target 1 MT 5'PFS GUG 3'PFS GCA (mixed)
RNA 1: B1 RNA 1
RNA 2: B1 RNA 2 with U54A
B27: target 1 MT 5'PFS GCA 3'PFS GGA (mixed)
RNA 1: B1 RNA 1
RNA 2: B1 RNA 2 with U28C, G29A, C53G, U54A
B28: target 1 MT 5'PFS GGA 3'PFS CGG (mixed)
RNA 1: B1 RNA 1
RNA 2: B1 RNA 2 with U28G, G29A, G52C, C53G, U54G
B29: target 1 MT 5'PFS AAG 3'PFS UCU (mixed)
RNA 1: B1 RNA 1
RNA 2: B1 RNA 2 with G27A, U28A, G52U
B30: target 1 MT 5'PFS GGG 3'PFS AUU (mixed)
RNA 1: B1 RNA 1
RNA 2: B1 RNA 2 with U28G, G52A, C53U
B31: target 1 MT 5'PFS GGG 3'PFS AUG (mixed)
RNA 1: B1 RNA 1
RNA 2: B1 RNA 2 with U28G, G52A, C53U, U54G

Numbering of substitutions follows the chain as printed.

For the data set, the target named is T1, EsCas13d, nuclease-dead. As to the kind of experiment: crRNA (strand 1, pre-loaded); Mg2+; 40 mM Tris-HCl pH 7.5, 150 mM NaCl, 6 mM MgCl2, 1 mM DTT, 0.1% Tween-20, 0.2 mg/ml BSA; 25 C; 10 min per concentration, then washed. The following applies: tags: His6-TwinStrep-SUMO cleaved; N-terminal SNAP kept (SNAP-Surface 488); label: 3' end held by stalled T7 RNA polymerase.
A word on the Kd: it is the equilibrium constant for the complex coming apart. A low value points to a tighter complex. In the case of B1, binding was characterised by a dissociation constant (Kd) of 7 ± 0.7 nM.

In turn, B2 registered a Kd of 11.3 ± 1.85 nM. Then B3, with 16 ± 5 nM. Consider B4, for which the Kd was about 24 nM. Then B5, with 14.5 ± 4.5 nM. Then B6, with 47.5 ± 15.5 nM; and B7, with 18.8 ± 1.6 nM; and B8, with about 80 nM. Then B9, with about 17 nM. Regarding B10, the Kd was determined as 41.5 ± 8.5 nM. B11: the affinity, expressed as Kd, was 28.5 ± 11 nM. B12 showed a Kd of 46 ± 4 nM. With B13, the Kd is about 82 nM. Then B14, with 25.8 ± 4.2 nM. The molecule B15 registered a Kd of 25 ± 6.6 nM. In turn, B16 displayed a Kd of 34 ± 12.5 nM.

On to B17, for which the Kd turned out to be 35.5 ± 9.5 nM.

For the molecule B18, the Kd stood at 32 ± 6.5 nM.

The molecule B19 yielded a Kd of 100 ± 40 nM. In the case of B20 it was 100 ± 45 nM; in that of B21, 9 ± 1.2 nM; in that of B22, 74 ± 30 nM. The molecule B23 displayed a Kd of 33.5 ± 10 nM. Regarding B24, the Kd is about 59.5 nM. Then B25, with 14.7 ± 0.7 nM; and B26, with 26 ± 4 nM; and B27, with 80 ± 40 nM. In the case of B28 it was 20.6 ± 3.8 nM. With B29, the Kd turned out to be 12.1 ± 3.65 nM.

B30 showed a Kd of 17.3 ± 2.1 nM. B31 had a Kd of 26.5 ± 4 nM.
